# Results published in the supplement of paper PMC10724198.
# ± gives the standard deviation of the averaged measurements.
# Test system: Saccharomyces cerevisiae
# Assay: protein stability index of tFT-peptide fusion (C-terminal peptide) (PSI (0-1 scale)); higher = more stable (slower turnover)
# Conditions: genetic background: wild type; temperature: 30 C
# Protocol: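 Multiplexed protein stability (MPS) profiling in S. cerevisiae. Random 12-aa peptides (tFT-X12 library) are fused to the C-terminus of a sfGFP-mCherry tandem fluorescent timer, after mCherry and a GGGS linker. Cells are FACS-sorted into 8 mCherry/sfGFP bins and deep-sequenced. The protein stability index (PSI) is the read-weighted bin average, scaled from 0 (unstable) to 1 (stable). Only peptides with >10 reads are reported; cells were grown at 30 °C in SC-His with glucose.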
# 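Also: PSI is a weighted mean of sequencing reads over stability bins, variants kept only with over 10 reads, mCherry proximal and sfGFP distal, peptide attached via GGGS linker.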
row,Sequence,protein stability index
1,AAAPWSVSGCPG,0.6611 ± 0.0049
2,AACLCATYPVGT,0.752 ± 0.07
3,AAGTVFCRITWD,0.678 ± 0.022
4,AAIFDSIRKDLR,0.69 ± 0.039
5,AAISGELRVWVL,0.642 ± 0.0081
6,AAKQIPRYRTTG,0.716 ± 0.078
7,AALRLVEDKSTW,0.71 ± 0.059
8,AAPAGAAKRWGT,0.641 ± 0.035
9,AAPRGRGRFAAA,0.699 ± 0.024
10,AARFRAVPVFGN,0.661 ± 0.037
11,AARPLGLPSASG,0.7113 ± 0.0062
12,AARQRWSLEFLD,0.65 ± 0.1
13,AASPPPRISAWL,0.746 ± 0.02
14,AATDWFHLPFPP,0.682 ± 0.15
15,ACLCLPGVRVGG,0.625 ± 0.038
16,ACPDARNAGTQR,0.708 ± 0.022
17,ACSPPPLLPPPL,0.737 ± 0.016
18,ACSSSLPPSSPP,0.671 ± 0.0078
19,ACVPGGFVWGGV,0.754 ± 0.065
20,ACYEYRPSPASC,0.728 ± 0.053
21,ADENFKVRKRRS,0.703 ± 0.057
22,ADQVGRAVIIAS,0.644 ± 0.0074
23,ADRVHLNGLEML,0.747 ± 0.0093
24,AEEWPVRAGGRG,0.609 ± 0.056
25,AEGCHIRVHWGV,0.7265 ± 0.0066

row,Sequence,protein stability index
1,AEGYRGECSGCM,0.622 ± 0.052
2,AEVRGTVGRLVG,0.632 ± 0.011
3,AFAFSVLTGWGV,0.638 ± 0.072
4,AFGAPVVRHATF,0.723 ± 0.02
5,AFGFCKVLSSGC,0.68 ± 0.013
6,AFLVGYSGVGYV,0.687 ± 0.032
7,AFPLPPPPPPKP,0.708 ± 0.012
8,AFPPDVPPLTPL,0.72 ± 0.1
9,AFRGFLSVNFNL,0.7338 ± 0.005
10,AFSYRAVIALLP,0.683 ± 0.018
11,AFVLGSWSWWRA,0.715 ± 0.015
12,AGAGEHCDGVVG,0.641 ± 0.0096
13,AGAGGGGWWGGV,0.76 ± 0.054
14,AGAGGGQGKGRE,0.639 ± 0.019
15,AGALYGNPCPPL,0.657 ± 0.019
16,AGARLEWVVAGR,0.7539 ± 0.0045
17,AGCRFRWHTVDC,0.648 ± 0.073
18,AGGAGWGLVLGC,0.647 ± 0.082
19,AGGGGGDAGRGV,0.744 ± 0.078
20,AGGGRRRLDGGR,0.703 ± 0.0086
21,AGGRGGGLGLWC,0.724 ± 0.1
22,AGIDYLSVGGSL,0.728 ± 0.074
23,AGLDRFLVIWGI,0.6106 ± 0.0061
24,AGLLGVVGGRFG,0.6993 ± 0.00076
25,AGLRMALGVGIP,0.6975 ± 0.0065

row,Sequence,protein stability index
1,AGRGGTGIGERV,0.63 ± 0.072
2,AGRTGVLGGHVP,0.691 ± 0.0095
3,AGRVGRRGPPNR,0.629 ± 0.038
4,AGSLPLLYPSLR,0.745 ± 0.015
5,AGSSGGGAWWGE,0.681 ± 0.12
6,AGSSLVVAWHGV,0.673 ± 0.028
7,AGTALVFNGSKA,0.7209 ± 0.0045
8,AGVVARTRRDGG,0.708 ± 0.035
9,AGVVGRMGWGAT,0.707 ± 0.041
10,AHEAHPITPRGP,0.695 ± 0.042
11,AHFQDSTSPATI,0.722 ± 0.017
12,AHGASGNRSHNQ,0.644 ± 0.037
13,AHPPPPPPPPAP,0.677 ± 0.14
14,AHPPPSPPFPRH,0.658 ± 0.015
15,AHQEAIIPTIGK,0.694 ± 0.087
16,AHVYGCGGGGMT,0.734 ± 0.055
17,AHWYPAGQCSRL,0.804 ± 0.13
18,AICSVRSGITLS,0.6529 ± 0.0019
19,AIGPLTCFFAFL,0.695 ± 0.079
20,AIILGPPIGWTK,0.757 ± 0.026
21,AILGYFSLVEPP,0.542 ± 0.013
22,AIPRPPRVWGHL,0.727 ± 0.016
23,AISVISNLTKLE,0.617 ± 0.034
24,AIVASAPSLGRS,0.658 ± 0.038
25,AKDSSPTFTSPH,0.673 ± 0.032

row,Sequence,protein stability index
1,AKDSTAVVRLGT,0.703 ± 0.029
2,AKKTKSRANSDL,0.701 ± 0.085
3,AKRKEAGKPHAN,0.695 ± 0.085
4,AKRQRQQKKDKG,0.626 ± 0.014
5,AKSSLGSSYKTL,0.761 ± 0.064
6,AKYPLTRCLFGS,0.705 ± 0.033
7,ALASPPPTPSLV,0.638 ± 0.0068
8,ALEFRDASLPVQ,0.682 ± 0.068
9,ALFVVLSGLSLR,0.616 ± 0.017
10,ALGGKDQSRSSS,0.699 ± 0.019
11,ALLGGQLVWNSK,0.667 ± 0.14
12,ALLLPFPPPPPP,0.559 ± 0.03
13,ALLLSHFLFFYA,0.524 ± 0.028
14,ALLSRFFPAFFF,0.604 ± 0.021
15,ALPLPAPSSIPS,0.712 ± 0.029
16,ALPNPLLPPAPP,0.612 ± 0.026
17,ALPPGSRPLIPS,0.628 ± 0.024
18,ALPRFPATSFPT,0.695 ± 0.04
19,ALPRPPSPFSPL,0.666 ± 0.078
20,ALRGRTTPPSHT,0.726 ± 0.086
21,ALSEAITLPVNP,0.674 ± 0.085
22,ALVPPDPTPPPP,0.699 ± 0.047
23,ALVQAAPPGRTP,0.6864 ± 0.0049
24,ALVTLRRVVDLV,0.601 ± 0.08
25,AMGILSHLTACW,0.659 ± 0.048

row,Sequence,protein stability index
1,ANKIRMKYMRTG,0.6139 ± 0.0027
2,ANKKKKKIKTKH,0.757 ± 0.12
3,ANSRPASSTRLR,0.857 ± 0.2
4,APAWSFFGLDKS,0.702 ± 0.015
5,APEGGEAQVLPA,0.6842 ± 0.0022
6,APFAPRRPLPPP,0.612 ± 0.094
7,APFRHKANEPGE,0.706 ± 0.037
8,APIQPGEDKLKR,0.64 ± 0.0099
9,APIQPRAPPRAP,0.669 ± 0.017
10,APIRRPTCLSEV,0.708 ± 0.043
11,APIWRSLRGLAI,0.555 ± 0.18
12,APLTVLTARSLF,0.763 ± 0.055
13,APNPPPPPPPLP,0.729 ± 0.03
14,APPFNPSRLSRP,0.725 ± 0.066
15,APPPLPPPTLPT,0.757 ± 0.041
16,APPPNPPRPSSR,0.754 ± 0.032
17,APPPPAVPHYRP,0.667 ± 0.012
18,APPPPHPRTPKP,0.693 ± 0.069
19,APPPPPFPPPCA,0.694 ± 0.049
20,APPPPPPAPPLP,0.591 ± 0.028
21,APPPPPPFPPLP,0.684 ± 0.093
22,APPPPPRISAWL,0.745 ± 0.012
23,APPPPPVHPSSP,0.734 ± 0.011
24,APPPPTPPPPPA,0.7 ± 0.019
25,APPSPTSPPTPP,0.642 ± 0.1

row,Sequence,protein stability index
1,APRKTPPHPPPS,0.689 ± 0.06
2,APRPSNRRPRPR,0.629 ± 0.025
3,APRRSPGWGPEG,0.731 ± 0.083
4,APSEPVIYLPRV,0.746 ± 0.14
5,APSINVQVYWSG,0.649 ± 0.041
6,APSPPFLPLTLT,0.656 ± 0.035
7,APSPPTRYLPLF,0.684 ± 0.019
8,APSSPPPPTLPP,0.716 ± 0.17
9,APVGYNTVASAC,0.685 ± 0.042
10,APVVSFTAPLAF,0.619 ± 0.1
11,AQERDGAIKKTH,0.7 ± 0.033
12,AQLPRSFAPPLR,0.868 ± 0.19
13,AQRRHGRSIRRD,0.787 ± 0.019
14,AQSYPHPPPPPP,0.644 ± 0.041
15,ARACPLCFVMMF,0.559 ± 0.013
16,ARCGNSAPWHVG,0.693 ± 0.019
17,ARFYPPLPTDSL,0.708 ± 0.056
18,ARGAPVSGRAGG,0.6574 ± 0.005
19,ARGDDGSTCSRG,0.697 ± 0.059
20,ARGGGPERIHPE,0.66362 ± 0.00048
21,ARGIVAHKVTQP,0.65 ± 0.11
